B1: MD8S protein: extracellular region of human MD8 protein, 1st to 646th amino acids of SEQ ID NO: 2, with C-terminal FLAG tag (protein, listed as Homo sapiens)
chain: MRGLGLWLLGAMMLPAIAPSRPWALMEQYEVVLPRRLPGPRVRRALPSHLGLHPERVSYVLGATGHNFTLHLRKNRDLLGSGYTETYTAANGSEVTEQPRGQDHCFYQGHVEGYPDSAASLSTCAGLRGFFQVGSDLHLIEPLDEGGEGGRHAVYQAEHLLQTAGTCGVSDDSLGSLLGPRTAAVFRPRPGDSLPSRETRYVELYVVVDNAEFQMLGSEAAVRHRVLEVVNHVDKLYQKLNFRVVLVGLEIWNSQDRFHVSPDPSVTLENLLTWQARQRTRRHLHDNVQLITGVDFTGTTVGFARVSAMCSHSSGAVNQDHSKNPVGVACTMAHEMGHNLGMDHDENVQGCRCQERFEAGRCIMAGSIGSSFPRMFSDCSQAYLESFLERPQSVCLANAPDLSHLVGGPVCGNLFVERGEQCDCGPPEDCRNRCCNSTTCQLAEGAQCAHGTCCQECKVKPAGELCRPKKDMCDLEEFCDGRHPECPEDAFQENGTPCSGGYCYNGACPTLAQQCQAFWGPGGQAAEESCFSYDILPGCKASRYRADMCGVLQCKGGQQPLGRAICIVDVCHALTTEDGTAYEPVPEGTRCGPEKVCWKGRCQDLHVYRSSNCSAQCHNHGVCNHKQECHCHAGWAPPHCAKLLTE
modifications: C-terminal FLAG tag

Key:
[1] = test system: MD8S protein; experiment: Inhibition of digestion of recombinant IGFBP-5 by MD8S protein (western blotting); assay type: biochemical, human
Description: The MD8S enzyme solution obtained in Example 8(1) was reacted with recombinant IGFBP-5 obtained in Example 9(1) in a 50 mmol/L tris-HCl (pH7.4) buffer containing 50 mmol/L NaCl, 2 mmol/L CaCl2, 20 μg/mL bovine serum albumin (BSA), and 0.1% CHAPS at 37° C. overnight. In this connection, concentrations of the MD8S protein and recombinant IGFBP-5 in the reaction solution were 1.5 μg/mL and 10 μg/mL, respectively.
Using an aliquot of the reaction solution, SDS-PAGE was carried out, and then a transfer to a PVDF membrane and blocking was carried out. Recombinant IGFBP-5 was detected by reacting a biotinylated M2 antibody (Sigma) as the first antibody, followed by a horseradish peroxidase-labeled streptavidin (Amersham) as the second antibody, and by using an ECL Western Blotting Detecting System (Amersham Pharmacia).
Substances inhibiting the activity of digesting IGFBP-5 by the MD8S protein can be screened by the reaction system utilizing western blotting performed in Example 9(2). In this Example, the procedure described in Example 9(2) was repeated, except that various compounds having a hydroxamic acid scaffold as a compound to be tested were added to the reaction system containing the MD8S enzyme solution and recombinant IGFBP-5, to measure an inhibitory intensity of the activity of digesting IGFBP-5. […]

[2] = test system: IGFBP-3; experiment: Activity of digesting IGFBP-3 by MD8S protein; assay type: biochemical; conditions: commercial IGFBP-3 10 μg/mL, MD8S 1.5 μg/mL, 37° C. overnight; new band of 25 kDa
Description: (§1) The MD8S enzyme solution obtained in Example 8(1) was reacted with commercially available IGFBP-3 or IGFBP-5 (upstate biotechnology) in a 50 mmol/L tris-HCl(pH7.4) buffer containing 50 mmol/L NaCl, 2 mmol/L CaCl2, 20 μg/mL bovine serum albumin (BSA), and 0.1% CHAPS at 37° C. overnight. In this connection, concentrations of the MD8S protein and IGFBP-3 (or IGFBP-5) in the reaction solution were 1.5 μg/mL and 10 μg/mL, respectively.
(§2) Using an aliquot of the reaction solution, sodium dodecyl sulfate polyacrylamide gel electrophoresis (SDS-PAGE) was carried out, and then a transfer to a PVDF membrane and blocking was carried out. IGFBP-3 was detected using an anti-IGFBP-3 polyclonal antibody (R&D System) as the first antibody and a peroxidase-labeled rabbit anti-goat IgG polyclonal antibody (ZYMED) as the second antibody. IGFBP-5 was detected using an anti-IGFBP-5 polyclonal antibody (upstate biotechnology) as the first antibody and a peroxidase-labeled goat anti-rabbit IgG polyclonal antibody (MBL) as the second antibody.

[3] = test system: IGFBP-5; experiment: Activity of digesting IGFBP-5 by MD8S protein; assay type: biochemical, human; conditions: MD8S 1.5 μg/mL, 37° C. overnight
Description: as §1, §2
The MD8S enzyme solution obtained in Example 8(1) was reacted with recombinant IGFBP-5 obtained in Example 9(1) in a 50 mmol/L tris-HCl (pH7.4) buffer containing 50 mmol/L NaCl, 2 mmol/L CaCl2, 20 μg/mL bovine serum albumin (BSA), and 0.1% CHAPS at 37° C. overnight. […]

Molecule | IC50 ([1]; MD8S 1.5 μg/mL, recombinant IGFBP-5 10 μg/mL, 37° C. overnight, western blot image analysis, read-out: intensity of the inhibition activity (IC50) of the activity of digesting IGFBP-5) [µM] | activity of digesting recombinant IGFBP by the MD8S protein in presence of compound (FIG. 3) ([1]; electrophoresis, compound A 1 nmol/L to 10 μmol/L) | activity of digesting IGFBP-3 [2] | activity of digesting IGFBP-5 ([3]; commercial IGFBP-5 10 μg/mL, new bands 12 to 25 kDa) | activity of digesting recombinant IGFBP-5 ([3]; recombinant IGFBP-5-FLAG 10 μg/mL)
CCCOCC(C(=O)NC(Cc1ccc(OC)cc1)C(=O)NC)C(CSC)C(=O)O (stereo not drawn) [compound A, N^α-[(3-carboxy-4-methylthio-2-propoxymethyl)butyryl]-N,O-dimethylthyrosineamide] | 3.3 | inhibited |  |  | 
B1 |  |  | exhibits an activity of digesting IGFBP-3 | exhibits an activity of digesting IGFBP-3 and IGFBP-5 | exhibits an activity of digesting IGFBP-5

Source: US7374923B2, “Polypeptide” (Astellas Pharma Inc., priority 2002, dated 2008)
